Measured values: article PMC6226434

T1: ETA-SmBiT construct (human ETA receptor with SmBiT at the C-terminus) (human) (UniProt P25101)
T1 sequence: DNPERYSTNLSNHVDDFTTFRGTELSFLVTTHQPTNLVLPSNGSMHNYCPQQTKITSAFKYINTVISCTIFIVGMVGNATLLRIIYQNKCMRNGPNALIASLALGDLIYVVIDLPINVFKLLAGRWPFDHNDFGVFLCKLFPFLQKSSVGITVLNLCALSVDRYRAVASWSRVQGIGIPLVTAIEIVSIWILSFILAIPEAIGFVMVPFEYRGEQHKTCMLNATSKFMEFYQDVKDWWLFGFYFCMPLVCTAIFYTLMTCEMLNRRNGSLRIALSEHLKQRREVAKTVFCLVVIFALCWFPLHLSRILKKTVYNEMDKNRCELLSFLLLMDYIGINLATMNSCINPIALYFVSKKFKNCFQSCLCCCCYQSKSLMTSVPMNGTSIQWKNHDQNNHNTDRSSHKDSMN

T2: full-length human ETA receptor construct with an internal FLAG epitope tag (human) (UniProt P25101)
T2 sequence: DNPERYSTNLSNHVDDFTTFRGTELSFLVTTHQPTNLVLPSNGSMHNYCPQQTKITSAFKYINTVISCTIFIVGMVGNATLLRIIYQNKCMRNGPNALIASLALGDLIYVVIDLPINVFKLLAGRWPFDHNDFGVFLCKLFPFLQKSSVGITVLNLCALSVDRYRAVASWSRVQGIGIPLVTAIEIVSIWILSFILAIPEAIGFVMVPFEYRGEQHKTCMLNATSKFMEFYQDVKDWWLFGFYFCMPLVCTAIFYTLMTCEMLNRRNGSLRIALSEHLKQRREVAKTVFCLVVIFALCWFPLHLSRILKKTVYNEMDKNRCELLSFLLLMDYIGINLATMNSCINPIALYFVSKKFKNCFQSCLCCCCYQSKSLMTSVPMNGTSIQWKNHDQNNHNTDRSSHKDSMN


How the values were obtained:
[1] = molecular target: ETB-Y5 with SmBiT at the C-terminus (thermostabilized human ETB receptor) (human) (UniProt P24530)
[2] = molecular target: ETB-SmBiT construct (human ETB receptor with SmBiT at the C-terminus) (human) (UniProt P24530)
[3] = molecular target: human ETB receptor, wild type, codon-optimized construct with an internal FLAG epitope tag (human) (UniProt P24530)
[4] = molecular target: human ETB receptor L252H I254T double mutant (human) (UniProt P24530)
[5] = molecular target: thermostabilized human ETB receptor (ETB-Y5), construct with an internal FLAG epitope tag (human) (UniProt P24530)
[6] = molecular target: human ETB receptor, wild type, codon-optimized construct with an internal FLAG epitope tag (human) (UniProt P24530); remark: listed apart in the source
[7] = molecular target: T1, ETA-SmBiT construct (human ETA receptor with SmBiT at the C-terminus) (human)
[8] = molecular target: T2, full-length human ETA receptor construct with an internal FLAG epitope tag (human)

Row | Molecule | β-arrestin recruitment (NanoBiT, receptor-SmBiT with m12), EC50 [1] | β-arrestin recruitment (NanoBiT, receptor-SmBiT with m12), Emax relative to ET-1 [1] | β-arrestin recruitment (NanoBiT, receptor-SmBiT with m12), EC50 [2] | β-arrestin recruitment (NanoBiT, receptor-SmBiT with m12), Emax relative to ET-1 [2] | AP-TGFα release (TGFα shedding assay), EC50; experiment with the double mutant [3] | AP-TGFα release (TGFα shedding assay), EC50 [4] | AP-TGFα release (TGFα shedding assay), EC50 [5] | AP-TGFα release (TGFα shedding assay), Emax relative to ET-1 [5] | AP-TGFα release (TGFα shedding assay), EC50 [6] | AP-TGFα release (TGFα shedding assay), Emax relative to ET-1 [6] | β-arrestin recruitment (NanoBiT, receptor-SmBiT with m12), EC50 [7] | β-arrestin recruitment (NanoBiT, receptor-SmBiT with m12), Emax relative to ET-1 [7] | AP-TGFα release (TGFα shedding assay), EC50 [8] | AP-TGFα release (TGFα shedding assay), Emax relative to ET-1 [8]
1 | IRL1620 (N-Suc-[E9, A11, 15] ET-1(8-21)) (peptide) | 15.1 nM | 85.4% | 3.1 nM | 87.3% | 0.14 nM | 0.32 nM | 0.92 nM | 83.6% | 0.11 nM | 87.6% | – | – | – | –
2 | CTCFTYKDKECVYYCHLDIIW [endothelin-3] | 3.5 nM | 105% | 3.3 nM | 105% | – | – | 0.077 nM | 101% | 0.13 nM | 100% | 10.8 nM | 81.1% | 0.65 nM | 101%
